In patent US8574882B2, “Thermostable 1,5-anhydroglucitol dehydrogenase, and method for measurement of 1,5-anhydroglucitol by using the same” (Nippon Kayaku Kabushiki Kaisha, priority 2008, dated 2013):
Where a chain is given by its changes, count along the chain named. In names and notes the source's numbering stands.

B1: Ver. 1.0: thermostable 1,5-AG dehydrogenase, protein 21) of b101; net vs SEQ ID NO: 4: P50Q (protein)
chain: MEFGGQPDIVIIGSGIGGASIAAGLSASGADILILEAGESLPDRPENRDQHAIFQRGFFRPKEFWYETDGTPFNPGNYYNVGGNSKFYGAVLVRYRREDFEELAHLEGVSPAWPFAYDELEPWYCKAEELFQVRGELGDDPTEPYHSKPYSYPAIRDESPIADLRARLKKAGLHPASLPLGVDIERWLAKAKTPWDAHPNSNDGKMDAETCPLALALKHPNVGLETSARVTKLETGPDGKTIVAVHYVKNGEALVLRPKLVILSAGAVQSAALLLRSGLANRSDQVGRNFMNHNASAVIGFDPRYRNDSVYQKTFGFNDYYLSDGAGGPPLGNVQLLGRVSGAILKSNMRQVPEWFLNRIAGHTIDFYAMSEDLPSPESRVSVDGDRIILHWVRSNWKAHLMLVDKLKSALRAAGFPVVLSRAFDRRTPSHQCGTVRIGDNPATAPLDPYCRAYDHPNLYVVDASFLPTSAAVNPALTIAAQALRVADHLNREVLA
modifications: Pseudomonas sp. NK-85001
B2: Ver. 2.0: thermostable 1,5-AG dehydrogenase, SEQ ID NO: 22; net vs SEQ ID NO: 4: Q6H, A37T, P50Q (protein)
chain: B1 chain with Q6H, A37T
modifications: Mutated 1,5-anhydroglucitol dehydrogenase gene
B3: Ver. 3.0: thermostable 1,5-AG dehydrogenase, protein 19); net vs SEQ ID NO: 4: A37T, P50Q, G362R (protein)
chain: B1 chain with A37T, G362R
modifications: Pseudomonas sp. NK-85001
B4: Ver. 3.1: thermostable 1,5-AG dehydrogenase, protein 18); net vs SEQ ID NO: 4: A37T, P50Q, L164M (protein)
chain: B1 chain with A37T, L164M
modifications: Pseudomonas sp. NK-85001

Legend:
[1] = tested on: 1,5-AG dehydrogenase (Ver. 0); test: Substrate specificity of parent strain-derived 1,5-AG dehydrogenase; format: biochemical, Pseudomonas sp. NK-85001; details: activity for 1,5-AG as 100%; Ver. 0, 40%-saturated ammonium sulfate precipitate fraction
Protocol: (§1) The components other than the crude enzyme solution are mixed and kept at 37° C. for 10 minutes. Then, the crude enzyme solution is added to the reaction solution to initiate reaction. Decrease in absorbance at 600 nm for 1 minute with the temperature kept at 37° C. is determined.
A precipitate fraction of 40%-saturated ammonium sulfate was collected by centrifugation and dissolved in a 50 mM sodium phosphate buffer, pH 7.5.

[2] = 1,5-AG dehydrogenase activity determination of crude enzyme solution (L-sorbose, DCIP, 1-m-PMS, decrease in absorbance at 600 nm); format: biochemical
Protocol: The E. coli JM109 strains transformed with the pTrc-PS15DH vectors confirmed in the paragraph (I) to have the insert fragment were inoculated to 3 mL of an LB medium containing 100 μg/mL ampicillin and cultured at 28° C. for 14 hours. Of this culture solution, a 0.2 mL aliquot was inoculated to 10 mL of an LB medium (containing 100 μg/mL ampicillin). Approximately 3 hours later, the rise of OD600 of the culture solution to 0.4 to 0.7 was confirmed, and 1,5-AG dehydrogenase expression in E. coli was then induced by the addition of 0.1 M IPTG (final concentration: 0.1 mM) to the medium. This culture solution was further cultured overnight at 28° C. and centrifuged at 10000×g for 5 minutes to precipitate cells. The supernatant was removed, and the pellet was then washed twice with a 0.85% aqueous NaCl solution. Cells were precipitated by centrifugation. Then, the microbial cells were suspended in 1 mL of a 50 mM sodium phosphate buffer, pH 7.5. Triton X-100 was added thereto at a concentration of 0.25%, and the microbial cells were disrupted using a bead impact-type cell disrupter MINI-BEAD BEATER (30 seconds×4, manufactured by Central Scientific Commerce, Inc.) while cooled in ice. After centrifugation at 20000×g for 10 minutes, the supernatant was examined as a crude enzyme solution for its 1,5-AG dehydrogenase activity. The composition of the reaction solution is as described below. Since the 1,5-AG dehydrogenase also reacts with L-sorbose as its substrate, L-sorbose was used for convenience instead of 1,5-AG in the enzymatic activity determination.
Composition of Reaction Solution:
as §1
The enzymatic activity can be determined according to the following equation: Enzymatic activity (U/mL)=(Δ600/min×0.6 (mL)×dilution ratio of crude enzyme solution)/(16.3×0.01 (mL)).
(§2) The E. coli JM109 containing the gene encoding each thermostable 1,5-AG dehydrogenase obtained in the paragraphs to [4] of EXAMPLE 2 was transplanted to 10 mL of an LB liquid medium containing 50 μg/mL ampicillin and 0.1 mM IPTG and shake-cultured at 30° C. for 16 hours. 10 mL of the shake-culture solution was centrifuged at 10000 rpm for 5 minutes. The culture supernatant was removed, and the pellet was then washed twice with a 0.85% aqueous NaCl solution. These microbial cells were suspended in 1 mL of a 50 mM sodium phosphate buffer (pH 7.5) containing 0.25% Triton X-100. The microbial cells were disrupted using a bead impact-type cell disrupter MINI-BEAD BEATER (30 seconds×4, manufactured by Central Scientific Commerce, Inc.) while cooled in ice. After centrifugation at 15000 rpm for 10 minutes, the supernatant was used as a crude enzyme solution. When the crude enzyme solution was heat-treated, the treatment was performed for 10 minutes in a water bath of 45° C., 50° C., 55° C. or 60° C.
(§3) The enzymatic activity of the 1,5-AG dehydrogenase was calculated by measurement by the same approach as that described in the paragraph (J) of EXAMPLE 1.
(§4) A specific activity that represents the enzymatic activity of the 1,5-AG dehydrogenase per mg of the crude enzyme solution was calculated according to the following equation: Specific activity (U/mg)=enzymatic activity (U/mL)/protein concentration of crude enzyme solution (mg/mL). Moreover, the rate of residual activity was calculated according to the following equation: Rate of residual activity (%)=(specific activity of crude enzyme solution after heat treatment/specific activity of crude enzyme solution before heat treatment)×100.
The 1,5-AG dehydrogenase activity was determined based on the method described in EXAMPLE 1, and its specific activity was determined according to the equation described in EXAMPLE 3.

[3] = Stability of thermostable 1,5-AG dehydrogenase at heat treatment temperature (rate of residual activity); format: physicochemical; details: crude enzyme solution, water bath 45° C., 10 minutes
Protocol: as §2, §3, §4

[4] = Primary screening of variant gene library after heat treatment of microbial cells (DCIP decolorization with 1,5-AG); format: biochemical; details: microbial cells treated at 60° C. for 20 minutes; blue color of DCIP decolorized
Protocol: Approximately 10100 colonies of the variant gene library were randomly picked up using a colony picker (PM-2s, manufactured by Microtec Co., Ltd.) and subjected to primary screening In the primary screening, a 1.2-mL 96-well square deep well plate (manufactured by NALGE NUNC INTERNATIONAL MK.) was used. The colonies were transplanted to 500 μL of an LB liquid medium containing 50 μg/mL ampicillin and cultured (28° C., 900 rpm) overnight in a 96-well square plate shaker (TITRAMAX 100, manufactured by HEIDOLPH). The 96-well square deep well plate was centrifuged at 2000 rpm for 10 minutes to separate microbial cells, which were then treated at −80° C. for 1 hour. The microbial cells were thawed and then treated at 60° C. for 20 minutes. Active variant enzymes were picked up by suspending the microbial cells thus treated at 60° C. by the addition of 200 μL of a 0.1 M potassium phosphate buffer (pH 7.0) containing 0.5% Triton X-100, 30 μL of 6 mM 2,6-dichlorophenolindophenol (DCIP) and 5 μL of 50 mg/mL 1,5-AG. The blue color of DCIP is decolorized for colonies having the enzymatic activity. As a result, it was observed that the blue color of DCIP was decolorized for colonies carrying a 1,5-AG dehydrogenase Ver. […] 0.

[5] = crude enzyme solution, L-sorbose as substrate, 37° C.

Row | Molecule | Relative activity [1] [%] | Specific activity [2, 5] [U/mg] | Rate of residual activity after 10-minute treatment at 45° C. [3] [%] | further results
1 | OC[C@H]1O[C@H](O[C@H]2[C@H](O)[C@@H](O)C(O)O[C@@H]2CO)[C@H](O)[C@@H](O)[C@@H]1O (mixture of isomers) [Maltose] | 0.2 | – | – | –
2 | O=C[C@H](O)[C@@H](O)[C@@H](O)[C@H](O)CO [Galactose] | 0 | – | – | –
3 | O=C[C@H](O)[C@@H](O)[C@H](O)CO [Xylose] | 0 | – | – | –
4 | O=C(CO)[C@@H](O)[C@H](O)[C@@H](O)CO [L-sorbose] | 54 | – | – | –
5 | OC[C@H]1OC[C@H](O)[C@@H](O)[C@@H]1O [1,5-AG, 1,5-anhydroglucitol] | 100 | – | – | –
6 | OC[C@@H](O)[C@H](O)[C@@H](O)CO [Xylitol] | 0 | – | – | –
7 | B1 | – | 1.7 | 8.3 | Thermostability compared with 1,5-AG dehydrogenase Ver. 0 [4]: improved thermostability
8 | B2 | – | 1.4 | 31.0 | Specific activity ([2]; purification step: CFE (cell-free extracts)): 4.39 U/mg; Specific activity ([2]; purification step: ammonium sulfate precipitation): 13.8 U/mg; Specific activity ([2]; purification step: desalting and concentration): 13.5 U/mg; Specific activity ([2]; purification step: weak anion-exchange chromatography (DEAE FF)): 13.5 U/mg
9 | B3 | – | 2.8 | 40.0 | –
10 | B4 | – | 1.2 | 54.0 | –
